Assay results from US20230340151A1 (Pfizer, published 2023).
Blank lines part the entries; values can stand above or below the binder they belong to.

Legend:
[1] = biological target: Human GUCY2c on tumor cells (T84, HT55) (human, UniProt P25092 24-1073); experiment: cell-based or functional assay
[2] = biological target: T1, Purified human GUCY2c ECD (recombinant, construct not stated) (human, UniProt P25092 24-430); experiment: direct ELISA, coated GUCY2c ECD
T1 construct: also called recombinant human GUCY2c; recombinant GUCY2c protein

Human CD3 epsilon-delta = biological target: T2, Human CD3 epsilon-delta (human); experiment: direct ELISA, coated CD3 epsilon-delta
T2 construct: Single-chain epsilon-linker-delta with His6; also called huCD3
T2 chain: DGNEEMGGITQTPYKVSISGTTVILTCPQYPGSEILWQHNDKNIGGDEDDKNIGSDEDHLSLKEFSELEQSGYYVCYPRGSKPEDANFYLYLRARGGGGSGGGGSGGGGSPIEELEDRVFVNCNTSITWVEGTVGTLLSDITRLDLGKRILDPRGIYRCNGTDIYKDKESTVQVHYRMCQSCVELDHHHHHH

Human GUCY2C ECD-muIgG2a = biological target: T3, Human GUCY2C ECD-muIgG2a (human); experiment: sandwich ELISA: CD3 epsilon-delta coated, GUCY2c ECD-mIgG2a Fc in solution
T3 construct: also called human GUCY2c ECD-mouse IgG2a Fc fusion protein; huGUCY2c-mIgG2a

[3] = biological target: T4, Human GUCY2C full length (SEQ ID NO: 224), recombinant protein (human, UniProt P25092 24-430, limits assumed); experiment: SPR, GUCY2c directly immobilized, 25 C
T4 construct: also called huGUCY2C; biotinylated human GUCY2c
T4 sequence (P25092 24-430 F281L limits assumed): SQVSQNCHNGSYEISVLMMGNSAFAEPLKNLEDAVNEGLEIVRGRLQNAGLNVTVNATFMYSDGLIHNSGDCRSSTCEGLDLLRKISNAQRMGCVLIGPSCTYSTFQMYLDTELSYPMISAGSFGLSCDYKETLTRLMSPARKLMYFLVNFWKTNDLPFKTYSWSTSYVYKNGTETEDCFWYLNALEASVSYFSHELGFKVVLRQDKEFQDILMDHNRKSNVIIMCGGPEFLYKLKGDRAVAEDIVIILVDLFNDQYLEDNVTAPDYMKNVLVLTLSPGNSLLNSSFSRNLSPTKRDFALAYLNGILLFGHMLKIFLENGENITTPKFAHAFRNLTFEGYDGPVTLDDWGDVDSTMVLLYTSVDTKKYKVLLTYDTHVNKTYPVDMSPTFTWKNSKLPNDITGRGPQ

T1 sequence (P25092 24-430 limits assumed): as the sequence (P25092 24-430 F281L limits assumed) above, with L258F counted along it
Chain of Human GUCY2c on tumor cells (T84, HT55) (P25092 24-1073 limits assumed): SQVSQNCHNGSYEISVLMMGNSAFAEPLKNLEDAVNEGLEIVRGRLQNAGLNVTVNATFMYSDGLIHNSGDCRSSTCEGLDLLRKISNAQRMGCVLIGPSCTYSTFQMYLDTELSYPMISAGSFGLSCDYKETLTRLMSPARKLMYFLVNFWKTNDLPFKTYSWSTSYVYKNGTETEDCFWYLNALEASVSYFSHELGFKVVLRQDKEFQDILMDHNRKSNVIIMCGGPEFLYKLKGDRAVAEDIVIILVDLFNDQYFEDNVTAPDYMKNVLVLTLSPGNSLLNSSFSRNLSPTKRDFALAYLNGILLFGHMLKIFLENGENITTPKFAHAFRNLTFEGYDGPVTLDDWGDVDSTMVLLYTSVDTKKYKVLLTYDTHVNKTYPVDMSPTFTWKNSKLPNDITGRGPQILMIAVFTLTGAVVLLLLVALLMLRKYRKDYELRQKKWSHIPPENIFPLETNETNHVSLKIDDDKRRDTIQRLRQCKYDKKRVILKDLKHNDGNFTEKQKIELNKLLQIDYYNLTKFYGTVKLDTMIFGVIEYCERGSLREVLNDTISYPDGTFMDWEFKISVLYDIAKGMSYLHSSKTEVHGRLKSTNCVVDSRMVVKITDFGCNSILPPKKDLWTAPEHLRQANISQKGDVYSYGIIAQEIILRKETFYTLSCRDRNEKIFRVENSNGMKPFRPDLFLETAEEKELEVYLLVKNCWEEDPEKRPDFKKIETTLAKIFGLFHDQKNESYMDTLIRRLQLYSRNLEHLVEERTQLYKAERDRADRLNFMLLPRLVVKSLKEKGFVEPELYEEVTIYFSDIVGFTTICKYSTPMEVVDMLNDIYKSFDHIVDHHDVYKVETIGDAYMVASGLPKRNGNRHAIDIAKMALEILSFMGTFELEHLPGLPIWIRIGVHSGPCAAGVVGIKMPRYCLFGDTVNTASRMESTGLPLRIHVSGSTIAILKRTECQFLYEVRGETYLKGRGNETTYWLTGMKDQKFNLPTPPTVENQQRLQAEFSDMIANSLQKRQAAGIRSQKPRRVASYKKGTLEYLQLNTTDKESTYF
T3 sequence (chain, as listed by the source limits assumed): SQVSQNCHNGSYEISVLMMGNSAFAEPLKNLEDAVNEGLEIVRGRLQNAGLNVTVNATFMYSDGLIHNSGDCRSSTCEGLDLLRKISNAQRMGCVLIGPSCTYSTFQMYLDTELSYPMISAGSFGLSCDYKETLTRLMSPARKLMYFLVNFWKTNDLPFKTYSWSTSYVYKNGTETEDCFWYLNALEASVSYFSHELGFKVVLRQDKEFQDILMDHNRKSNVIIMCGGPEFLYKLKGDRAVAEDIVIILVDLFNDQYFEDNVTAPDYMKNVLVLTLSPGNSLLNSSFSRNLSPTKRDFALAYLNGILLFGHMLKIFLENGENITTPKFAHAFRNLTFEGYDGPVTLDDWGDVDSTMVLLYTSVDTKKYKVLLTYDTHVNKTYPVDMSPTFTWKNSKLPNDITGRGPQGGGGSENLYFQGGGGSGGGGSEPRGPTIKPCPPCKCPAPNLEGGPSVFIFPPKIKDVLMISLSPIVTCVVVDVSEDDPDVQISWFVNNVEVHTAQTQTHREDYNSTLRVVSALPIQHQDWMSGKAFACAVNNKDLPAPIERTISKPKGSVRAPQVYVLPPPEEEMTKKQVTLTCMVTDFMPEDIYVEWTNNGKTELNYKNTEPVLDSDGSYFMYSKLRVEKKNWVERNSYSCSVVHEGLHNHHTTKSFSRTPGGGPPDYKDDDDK

EC50 [2]: 79.8 nM
EC50 (Human CD3 epsilon-delta): 0.355 nM
EC50 (Human GUCY2C ECD-muIgG2a): 5.04 nM
B1: GUCY2C-0105 (bispecific antibody)
chain 1: DIVMTQSPSSLAVSVGEKVTVSCKSSQSLLYSSNQKNYLAWYQQRPGQSPKLLIYWASTRESGVPDRFTGSGSGTDFTLSISSVKAEDLAVYYCQQYYSYPTFGGGTKLEIKGGGSGGGGEVQLVESGGGLVQPGGSLRLSCAASGFTFSDYYMTWVRQAPGKGLEWVAFIRNRARGYTSDHNPSVKGRFTISRDNAKNSLYLQMNSLRAEDTAVYYCARDRPSYYVLDYWGQGTTVTVSSGCPPCPAPEAAGAPSVFLFPPKPKDTLMISRTPEVTCVVVDVSHEDPEVKFNWYVDGVEVHNAKTKPREEQYNSTYRVVSVLTVLHQDWLNGKEYKCKVSNKALPAPIEKTISKAKGQPREPQVCTLPPSREEMTKNQVSLWCLVKGFYPSDIAVEWESNGQPENNYKTTPPVLDSDGSFFLYSKLTVDKSRWQQGNVFSCSVMHEALHNHYTQKSLSLSPG
chain 2: DIVMTQSPDSLAVSLGERATINCKSSQSLFNVRSRKNYLAWYQQKPGQPPKLLISWASTRESGVPDRFSGSGSGTDFTLTISSLQAEDVAVYYCKQSYDLFTFGSGTKLEIKGGGSGGGGEVQLQQSGPELVKPGASVKISCKASGYSFTDYIMLWVKQSHGKSLEWIGNSNPYYGSTSYNLKFKGKATLTVDKSSSTAYMHLNSLTSEDSAVYYCARSGYYGSSPYWYFDVWGAGTTVTVSSGCPPCPAPEAAGAPSVFLFPPKPKDTLMISRTPEVTCVVVDVSHEDPEVKFNWYVDGVEVHNAKTKPREEQYNSTYRVVSVLTVLHQDWLNGKEYKCKVSNKALPAPIEKTISKAKGQPREPQVYTLPPCREEMTKNQVSLSCAVKGFYPSDIAVEWESNGQPENNYKTTPPVLDSDGSFFLVSKLTVDKSRWQQGNVFSCSVMHEALHNHYTQKSLSLSPG
notes: chimeric CD3-GUCY2c diabody-Fc, CD3-0004
T84 tumor cell EC50 (T cell cytotoxicity, E:T 10:1) [1]: 7.51 nM

EC50 [2]: 27.5 nM
EC50 (Human CD3 epsilon-delta): 0.887 nM
Kd [3]: 160 nM
koff [3]: 0.0224 s⁻¹
kon [3]: 143000 M⁻¹ s⁻¹
EC50 (Human GUCY2C ECD-muIgG2a): 7.5 nM
B2: GUCY2C-0077 (bispecific antibody)
chain 1: DIVLTQSPASLAVSLGQRATISCRASESVDNFDISFMNWFQQKPGQPPKLLIYAASNQGSGVPARFSGSGSGTDFSLNIHPMEEDDTAMYFCQQSKEVPYTFGGGTKLEIKGGGSGGGGEVQLVESGGGLVQPGGSLRLSCAASGFTFSDYYMTWVRQAPGKGLEWVAFIRNRARGYTSDHNPSVKGRFTISRDNAKNSLYLQMNSLRAEDTAVYYCARDRPSYYVLDYWGQGTTVTVSSGCPPCPAPEAAGAPSVFLFPPKPKDTLMISRTPEVTCVVVDVSHEDPEVKFNWYVDGVEVHNAKTKPREEQYNSTYRVVSVLTVLHQDWLNGKEYKCKVSNKALPAPIEKTISKAKGQPREPQVCTLPPSREEMTKNQVSLWCLVKGFYPSDIAVEWESNGQPENNYKTTPPVLDSDGSFFLYSKLTVDKSRWQQGNVFSCSVMHEALHNHYTQKSLSLSPG
chain 2: DIVMTQSPDSLAVSLGERATINCKSSQSLFNVRSRKNYLAWYQQKPGQPPKLLISWASTRESGVPDRFSGSGSGTDFTLTISSLQAEDVAVYYCKQSYDLFTFGSGTKLEIKGGGSGGGGEVQLQQSGAELARPGASVKLSCKASGYTFTKYWMQWIKQRPGQGLEWIGAIYPGDGFTTYTQKFKGKATLTADKSSNTAYMQLSSLASEDSAVYYCARRNYGRTYGGDYWGQGTSVTVSSGCPPCPAPEAAGAPSVFLFPPKPKDTLMISRTPEVTCVVVDVSHEDPEVKFNWYVDGVEVHNAKTKPREEQYNSTYRVVSVLTVLHQDWLNGKEYKCKVSNKALPAPIEKTISKAKGQPREPQVYTLPPCREEMTKNQVSLSCAVKGFYPSDIAVEWESNGQPENNYKTTPPVLDSDGSFFLVSKLTVDKSRWQQGNVFSCSVMHEALHNHYTQKSLSLSPG
T84 tumor cell EC50 (T cell cytotoxicity, E:T 10:1) [1]: 28.7 nM

EC50 [2]: > 100 nM
EC50 (Human CD3 epsilon-delta): 0.418 nM
Kd [3]: 26.1 nM
koff [3]: 0.00386 s⁻¹
kon [3]: 148000 M⁻¹ s⁻¹
EC50 (Human GUCY2C ECD-muIgG2a): 2.48 nM
B3: GUCY2C-0104 (bispecific antibody)
chain 1: DIVMTQSPASLAVSLGQRATISCRASKGVTTSGYSYMHWYQQKPGQPPKLLIYLASNLESGVPARFSGSGSGTDFTLNIHPVEEEDAATYYCQHSREFPLTFGAGTKLELKGGGSGGGGEVQLVESGGGLVQPGGSLRLSCAASGFTFSDYYMTWVRQAPGKGLEWVAFIRNRARGYTSDHNPSVKGRFTISRDNAKNSLYLQMNSLRAEDTAVYYCARDRPSYYVLDYWGQGTTVTVSSGCPPCPAPEAAGAPSVFLFPPKPKDTLMISRTPEVTCVVVDVSHEDPEVKFNWYVDGVEVHNAKTKPREEQYNSTYRVVSVLTVLHQDWLNGKEYKCKVSNKALPAPIEKTISKAKGQPREPQVCTLPPSREEMTKNQVSLWCLVKGFYPSDIAVEWESNGQPENNYKTTPPVLDSDGSFFLYSKLTVDKSRWQQGNVFSCSVMHEALHNHYTQKSLSLSPG
chain 2: DIVMTQSPDSLAVSLGERATINCKSSQSLFNVRSRKNYLAWYQQKPGQPPKLLISWASTRESGVPDRFSGSGSGTDFTLTISSLQAEDVAVYYCKQSYDLFTFGSGTKLEIKGGGSGGGGEVQLQQSGAELVKPGASVKLSCTASGFNIKDTYIHWVKQRPEQGLEWIGRIDPANGNANYDPKFQGKATITADTSSNTAYLQLSSLTSEDTAVFYCSSLGTGTYWGQGTTLTVSSGCPPCPAPEAAGAPSVFLFPPKPKDTLMISRTPEVTCVVVDVSHEDPEVKFNWYVDGVEVHNAKTKPREEQYNSTYRVVSVLTVLHQDWLNGKEYKCKVSNKALPAPIEKTISKAKGQPREPQVYTLPPCREEMTKNQVSLSCAVKGFYPSDIAVEWESNGQPENNYKTTPPVLDSDGSFFLVSKLTVDKSRWQQGNVFSCSVMHEALHNHYTQKSLSLSPG
T84 tumor cell EC50 (T cell cytotoxicity, E:T 10:1) [1]: 14.9 nM
